Measurements: article PMC6181919, “A cysteine-based molecular code informs collagen C-propeptide assembly” (Nature Communications, 2018)

How the values were obtained:
[1] = target: the molecule itself; assay: non-reducing SDS-PAGE immunoblot; cell lysate of transfected HEK293 cells (protein not secreted), non-reducing; denaturing, shows disulfide-linked species only
[2] = target: the molecule itself; assay: non-reducing SDS-PAGE immunoblot; conditioned media of transfected HEK293 cells, treated with 100 mM iodoacetamide, boiled in SDS, 12% gel, non-reducing; denaturing, shows disulfide-linked species only; two-colour detection of HA and FLAG
[3] = target: the molecule itself; assay: SEC; size exclusion chromatography in the presence and absence of Ca^2+, compared to wild-type C-Proα1(I)
[4] = target: the molecule itself; assay: AUC; sedimentation equilibrium, 25 °C, 20 mM Bis-Tris propane pH 7, 150 mM NaCl, without Ca^2+; equilibrium constants are of monomer to dimer
[5] = target: the molecule itself; assay: AUC; sedimentation equilibrium, 25 °C, 20 mM Bis-Tris propane pH 7, 150 mM NaCl, with 0.5 mM CaCl2; monomer to trimer

B1: wild-type, HA-tagged C-Proα2(XI) (domain or fragment, human, UniProt P13942 1501-1736, looked up)
chain: IQPLPIQMPKKTRRSVDGSRLMQEDEAIPTGGAPGSPGGLEEIFGSLDSLREEIEQMRRPTGTQDSPARTCQDLKLCHPELPDGEYWVDPNQGCARDAFRVFCNFTAGGETCVTPRDDVTQFSYVDSEGSPVGVVQLTFLRLLSVSAHQDVSYPCSGAARDGPLRLRGANEDELSPETSPYVKEFRDGCQTQQGRTVLEVRTPVLEQLPVLDASFSDLGAPPRRGGVLLGPVCFMG
notes: C-propeptide (C-Pro) domain of human procollagen alpha2(XI); gene bought from Genewiz; source: HEK293, transfected, not secreted, in cell lysate; not shown: HA, N-terminal, kept
[1]
  stoichiometry N: 3

B2: wild-type, HA-tagged C-Proα1(I) (C-propeptide domain of human Colα1(I)) (domain or fragment)
chain: DDANVVRDRDLEVDTTLKSLSQQIENIRSPEGSRKNPARTCRDLKMCHSDWKSGEYWIDPNQGCNLDAIKVFCNMETGETCVYPTQPSVAQKNWYISKNPKDKRHVWFGESMTDGFQFEYGGQGSDPADVAIQLTFLRLMSTEASQNITYHCKNSVAYMDQQTGNLKKALLLQGSNEIEIRAEGNSRFTYSVTVDGCTSHTGAWGKTVIEYKTTKTSRLPIIDVAPLDVGAPDQEFGFDVGPVCFL
notes: C-propeptide (C-Pro) domain of human procollagen alpha1(I), from the endogenous C-proteinase cleavage site to the C-terminus; Secreted alone it is a disulfide-linked homotrimer; also called wild-type C-Proα1(I); Colα1(I) C-Pro; not shown: HA, N-terminal, kept
[2]
  stoichiometry N: 3

B3: Asp1277His C-Proα1(I) (domain or fragment, human)
chain: DDANVVRDRDLEVDTTLKSLSQQIENIRSPEGSRKNPARTCRDLKMCHSDWKSGEYWIHPNQGCNLDAIKVFCNMETGETCVYPTQPSVAQKNWYISKNPKDKRHVWFGESMTDGFQFEYGGQGSDPADVAIQLTFLRLMSTEASQNITYHCKNSVAYMDQQTGNLKKALLLQGSNEIEIRAEGNSRFTYSVTVDGCTSHTGAWGKTVIEYKTTKTSRLPIIDVAPLDVGAPDQEFGFDVGPVCFL
notes: C-propeptide (C-Pro) domain of human procollagen alpha1(I) with the osteogenesis imperfecta-causing substitution Asp1277His
[3]
  stoichiometry N: 2

B4: purified C2S (Cys1265Ser) C-Proα1(I), His tag cleaved (domain or fragment, human)
chain: DDANVVRDRDLEVDTTLKSLSQQIENIRSPEGSRKNPARTCRDLKMSHSDWKSGEYWIDPNQGCNLDAIKVFCNMETGETCVYPTQPSVAQKNWYISKNPKDKRHVWFGESMTDGFQFEYGGQGSDPADVAIQLTFLRLMSTEASQNITYHCKNSVAYMDQQTGNLKKALLLQGSNEIEIRAEGNSRFTYSVTVDGCTSHTGAWGKTVIEYKTTKTSRLPIIDVAPLDVGAPDQEFGFDVGPVCFL
modifications: glycosylated (a single N-glycosylation site in the polypeptide; site not given)
notes: C-propeptide (C-Pro) domain of human procollagen alpha1(I), from the endogenous C-proteinase cleavage site to the C-terminus; also called C2S C-Proα1(I); source: HEK293 Freestyle, transfected, secreted, purified (Ni-NTA, HRV-3C cleavage, second Ni-NTA, Superdex 200)
[4]
  Ka: 76300 M⁻¹
  stoichiometry N: 2
[5]
  stoichiometry N: 3

B5: purified wild-type C-Proα1(I), His tag cleaved (domain or fragment, human)
chain: DDANVVRDRDLEVDTTLKSLSQQIENIRSPEGSRKNPARTCRDLKMCHSDWKSGEYWIDPNQGCNLDAIKVFCNMETGETCVYPTQPSVAQKNWYISKNPKDKRHVWFGESMTDGFQFEYGGQGSDPADVAIQLTFLRLMSTEASQNITYHCKNSVAYMDQQTGNLKKALLLQGSNEIEIRAEGNSRFTYSVTVDGCTSHTGAWGKTVIEYKTTKTSRLPIIDVAPLDVGAPDQEFGFDVGPVCFL
modifications: glycosylated (a single N-glycosylation site in the polypeptide; site not given)
notes: C-propeptide (C-Pro) domain of human procollagen alpha1(I), from the endogenous C-proteinase cleavage site to the C-terminus; The HA/FLAG vectors were modified to carry a cleavable 6x-His tag with an HRV-3C site; Interstrand disulfide-linked homotrimer; source: HEK293 Freestyle, transfected, secreted, purified (Ni-NTA, HRV-3C cleavage, second Ni-NTA, Superdex 200)
[4]
  stoichiometry N: 3
